From article PMC8457375 (Chemical Science, 2021)

How the values were obtained:
FADD^DD [1] = biological target: FADD^DD (UniProt Q13158)
FADD^DD [2] = biological target: FADD^DD (UniProt Q13158); test: ITC
FADD^DD [3] = biological target: T1, FADD^DD (UniProt Q13158 97-181); test: cell-based or functional assay
T1 sequence: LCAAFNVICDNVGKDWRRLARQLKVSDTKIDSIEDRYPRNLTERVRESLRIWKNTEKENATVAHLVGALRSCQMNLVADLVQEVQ

FADD^DD [4] = biological target: T1, FADD^DD; test: ITC

Molecule	Km for FADD^DD, glycosylation kinetics (FADD^DD [1])	Kd (FADD^DD [2])	Km for FADD^DD, glycosylation kinetics, fold worse than that of NleB1^EHEC (FADD^DD [3])	fold by which the Kd of NleB1^EHEC is better (FADD^DD [4])
NleB1^EHEC (enzyme)	13 µM	200 nM		
S286Y^SseK1 (enzyme) MIPPLNRYVPALSKNELVKTVTNRDIQFTSFNGKDYPLCFLDEKTPLLFQWFERNPARFGKNDIPIINTEKNPYLNNIIKAATIEKERLIGIFVDGDFFPGQKDAFSKLEYDYENIKVIYRNDIDFSMYDKKLSEIYMENISKQESMPEEKRDCHLLQLLKKELSDIQEGNDSLIKSYLLDKGHGWFDFYRNMAMLKAGQLFLEADKVGCYDLSTNSGCIYLDADMIITEKLGGIYIPDGIAVHVERIDGRASMENGIIAVDRNNHPALLAGLEIMHTKFDADPYYDGVCNGIRKHFNYSLNEDYNSFCDFIEFKHDNIIMNTSQFTQSSWARHVQ			4.4 fold	~6 fold
N302Y^SseK2 (enzyme) MARFNAAFTRIKIMFSRIRGLISCQSNTQTIAPTLSPPSSGHVSFAGIDYPLLPLNHQTPLVFQWFERNPDRFGQNEIPIINTQKNPYLNNIINAAIIEKERIIGIFVDGDFSKGQRKALGKLEQNYRNIKVIYNSDLNYSMYDKKLTTIYLENITKLEAQSASERDEVLLNGVKKSLEDVLKNNPEETLISSHNKDKGHLWFDFYRNLFLLKGSDAFLEAGKPGCHHLQPGGGCIYLDADMLLTDKLGTLYLPDGIAIHVSRKDNHVSLENGIIAVNRSEHPALIKGLEIMHSKPYGDPYYDWLSKGLRHYFDGSHIQDYDAFCDFIEFKHENIIMNTSSLTASSWR				~472 fold
